Molecular target: the molecule itself
Experiment: cryo-EM structure

B1: SARS-CoV S glycoprotein S2 subunit (from trypsin cleavage of the S ectodomain) (domain or fragment)
chain: STSQKSIVAYTMSLGADSSIAYSNNTIAIPTNFSISITTEVMPVSMAKTSVDCNMYICGDSTECANLLLQYGSFCTQLNRALSGIAAEQDRNTREVFAQVKQMYKTPTLKYFGGFNFSQILPDPLKPTKRSFIEDLLFNKVTLADAGFMKQYGECLGDINARDLICAQKFNGLTVLPPLLTDDMIAAYTAALVSGTATAGWTFGAGAALQIPFAMQMAYRFNGIGVTQNVLYENQKQIANQFNKAISQIQESLTTTSTALGKLQDVVNQNAQALNTLVKQLSSNFGAISSVLNDILSRLDKVEAEVQIDRLITGRLQSLQTYVTQQLIRAAEIRASANLAATKMSECVLGQSKRVDFCGKGYHLMSFPQAAPHGVVFLHVTYVPSQERNFTTAPAICHEGKAYFPREGVFVFNGTSWFITQRNFFSPQIITTDNTFVSGNCDVVIGIINNTVYDPLQPELDSFKEELDKYFKNHTSPDVDLGDISGINASVVNIQKEIDRLNEVAKNLNESLIDLQELGKYEQYIKWP
stoichiometry N: 3
